In assay [1] the target is complement C3b, site-specifically biotinylated (human) (UniProt P01024). Nature of the assay: SPR. (Surface plasmon resonance follows binding to a sensor surface in real time, without labels.)
Assay [2] has the same target. Nature of the assay: SPR. This is another data set of the same source.
Assay [3] has the same target. Nature of the assay: AlphaScreen or HTRF.

Chain of complement C3b, site-specifically biotinylated (human) (P01024 23-667, chain 1 of 2): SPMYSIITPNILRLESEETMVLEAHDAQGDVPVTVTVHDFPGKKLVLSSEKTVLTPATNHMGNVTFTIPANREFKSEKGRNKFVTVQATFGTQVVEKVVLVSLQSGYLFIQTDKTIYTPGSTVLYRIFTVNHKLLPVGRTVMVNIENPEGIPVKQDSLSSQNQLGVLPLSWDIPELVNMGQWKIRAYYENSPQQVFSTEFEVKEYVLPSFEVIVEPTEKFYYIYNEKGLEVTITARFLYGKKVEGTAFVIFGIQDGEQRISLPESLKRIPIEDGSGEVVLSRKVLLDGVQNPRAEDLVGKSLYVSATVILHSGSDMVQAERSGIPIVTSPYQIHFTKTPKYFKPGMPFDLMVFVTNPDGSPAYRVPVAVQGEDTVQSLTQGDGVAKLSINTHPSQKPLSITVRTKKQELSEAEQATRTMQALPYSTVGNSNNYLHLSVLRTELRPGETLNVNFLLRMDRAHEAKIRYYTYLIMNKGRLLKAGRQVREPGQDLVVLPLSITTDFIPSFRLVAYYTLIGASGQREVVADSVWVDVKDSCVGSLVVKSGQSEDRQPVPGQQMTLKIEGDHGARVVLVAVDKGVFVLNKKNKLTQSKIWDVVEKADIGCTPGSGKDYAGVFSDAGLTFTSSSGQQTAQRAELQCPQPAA
Chain of complement C3b, site-specifically biotinylated (human) (P01024 749-1663, chain 2 of 2): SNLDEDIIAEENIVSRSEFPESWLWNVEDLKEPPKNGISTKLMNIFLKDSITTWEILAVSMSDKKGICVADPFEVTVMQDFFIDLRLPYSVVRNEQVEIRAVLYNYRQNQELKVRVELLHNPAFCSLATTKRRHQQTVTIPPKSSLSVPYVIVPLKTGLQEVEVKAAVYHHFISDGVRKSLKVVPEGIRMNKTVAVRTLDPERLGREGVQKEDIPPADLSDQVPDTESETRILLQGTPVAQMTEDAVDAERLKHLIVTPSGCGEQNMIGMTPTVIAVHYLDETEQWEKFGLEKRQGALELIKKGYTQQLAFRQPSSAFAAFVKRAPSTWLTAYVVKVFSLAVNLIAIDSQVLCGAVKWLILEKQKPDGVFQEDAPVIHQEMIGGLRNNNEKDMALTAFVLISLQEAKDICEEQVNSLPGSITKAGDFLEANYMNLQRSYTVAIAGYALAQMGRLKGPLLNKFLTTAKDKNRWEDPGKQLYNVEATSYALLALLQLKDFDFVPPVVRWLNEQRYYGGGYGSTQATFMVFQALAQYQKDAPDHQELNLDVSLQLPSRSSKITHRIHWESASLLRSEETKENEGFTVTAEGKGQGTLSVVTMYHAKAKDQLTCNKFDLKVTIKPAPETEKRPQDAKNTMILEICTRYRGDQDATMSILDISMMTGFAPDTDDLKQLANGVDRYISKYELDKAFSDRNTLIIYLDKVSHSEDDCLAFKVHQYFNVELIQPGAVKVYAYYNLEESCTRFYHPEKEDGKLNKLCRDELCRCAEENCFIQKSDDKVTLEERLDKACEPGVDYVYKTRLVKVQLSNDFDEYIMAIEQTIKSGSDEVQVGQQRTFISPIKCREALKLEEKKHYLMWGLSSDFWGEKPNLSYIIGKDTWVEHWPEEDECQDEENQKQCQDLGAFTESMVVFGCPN

Consider SCIN-B.R44A (natural protein), for which the Kd – broadly, a measure of binding affinity in units of concentration – in assay [1] came to 2.5 µM. Further, in assay [2], the Kd is 2.6 µM; the koff – broadly, a measure of how fast the partners let go of each other – is 0.35 s⁻¹; the kon – broadly, the second-order rate constant of association – was determined as 140000 M⁻¹ s⁻¹.

Substance SCIN-B.R44A.Y51A (natural protein) registered a Kd in assay [1] of 2.5 µM. Besides, in assay [2], the Kd amounted to 5.1 µM, the koff was determined as 0.51 s⁻¹ and the kon turned out to be 110000 M⁻¹ s⁻¹. The Kd in assay [3] came out at 3.5 µM.

With SCIN-B.Y51A (natural protein), the Kd in assay [1] was determined as 1 µM; in assay [2], 0.81 µM; in assay [3], 0.9 µM.

Consider “staphylococcal complement inhibitor SCIN-B, full-length wild type (natural protein)”, for which the Kd was 0.39 µM in assay [1] and 0.202 µM in assay [2]. Further, in assay [2], the kon amounted to 520000 M⁻¹ s⁻¹.
